Results: publication PMC4909209

Key:
[1] = molecular target: ubiquitin tagged Ac-AChBP (Aplysia californica acetylcholine binding protein) (Aplysia californica); experiment: radioligand binding
[2] = molecular target: de-tagged Ls-AChBP (Lymnaea stagnalis acetylcholine binding protein) (Lymnaea stagnalis) (UniProt P58154); experiment: radioligand binding

| Substance | Ki [1] | Ki [2] |
| --- | --- | --- |
| alpha-conotoxin ImI (from UniProt P50983 5-17) (peptide) | 0.003 µM | > 10 µM |
| alpha-conotoxin LsIA (peptide) | 0.011 µM | 0.7 µM |
